Test results published in the supplement of paper PMC7877785.
± gives the uncertainty stated by the source.

Assay: self-splicing fitness, log relative to wild type (ln ratio); higher = more splicing; Tetrahymena group I intron in knt gene, E. coli kanamycin selection, DiMSum; sequences stand for … in CUCUCU…GGAGGGAAAAGUUAUCAGGCAUGCACCUGGUAGCUAGUCUUUAAACCAAUAGAUUGCAUCGGUUUAAAAGGCAAGACCGUCAAAUUGCGGGAAAGGGGUCAACAGCCGUUCAGUACCAAGUCUCAGGGGAAACUUUGAGAUGGCCUUGCAAAGGGUAUGGUAAUAAGCUGACGGACAUGGUCCUAACCACGCAGCCAAGUCCUAAGUCAACAGAUCUUCUGUUGAUAUGGAUGCAGUUCACAGACUAAAUGUCGGUCGGGGAAGAUGUAUUCUUCUCAUAAGAUAUAGUCGGACCUCUCCUUAAUGGGAGCUAGCGGAUGAAGUGAUGCAACACUGGAGCCGCUGGGAACUAAUUUGUAUGCGAAAGUAUAUUGAUUAGUUUUGGAGUACUCGUGGUCG
How it was run: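 Pooled colonies went to amplicon sequencing on an Illumina HiSeq 2500 after six replicate transformations. The plates were LB agar with 100 μg/mL carbenicillin, 50 μM IPTG and 0.2% rhamnose, with or without 25 μg/mL kanamycin, incubated overnight at 37°C or 30°C. The E. coli BL21(DE3) library had all eight P1ex-region intron nucleotides randomised, the intron placed in the knt kanamycin-resistance gene on pET-22b(+). DiMSum fitness is the error-weighted combination of replicate fold changes, kanamycin against none, normalised to wild type.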

Sequence | self-splicing fitness (ln) (30 °C) | self-splicing fitness (ln) (37 °C)
CGCAAGCAAUAUUACGCUCU | -1.26 ± 0.093 | -0.475 ± 0.094
CGCAAGCAAUAUUACGGAUA | -3.52 ± 0.22 | -2.23 ± 0.16
CGCAAGCAAUAUUACGGCCG | -1.1 ± 0.14 | -0.644 ± 0.26
CGCAAGCAAUAUUACGGUGG | -0.599 ± 0.064 | -0.2 ± 0.079
CGCAAGCAAUAUUACGUAAA | -3.18 ± 0.14 | -2.12 ± 0.18
CGCAAGCAAUAUUACGUCCU | -1.2 ± 0.11 | -0.366 ± 0.12
CGCAAGCAAUAUUACGUCGC | -2.24 ± 0.19 | -3.19 ± 0.29
CGCAAGCAAUAUUACGUGGU | -3.75 ± 0.17 | -3.22 ± 0.19
CGCCAGCAAUAUUACGAAAG | -0.802 ± 0.054 | 0.0641 ± 0.081
CGCCAGCAAUAUUACGAAUG | -0.783 ± 0.058 | 0.0658 ± 0.066
CGCCAGCAAUAUUACGACUA | -2.15 ± 0.2 | -2.13 ± 0.2
CGCCAGCAAUAUUACGAGCC | -1.63 ± 0.14 | -0.446 ± 0.18
CGCCAGCAAUAUUACGCACA | -1.68 ± 0.2 | -1.65 ± 0.27
CGCCAGCAAUAUUACGCGAA | -2.14 ± 0.15 | -1.38 ± 0.15
CGCCAGCAAUAUUACGCUUU | -2.9 ± 0.13 | -1.13 ± 0.12
CGCCAGCAAUAUUACGGAAA | -1.48 ± 0.17 | -1.93 ± 0.17
CGCCAGCAAUAUUACGGAGG | -3.32 ± 0.18 | -0.355 ± 0.12
CGCCAGCAAUAUUACGGCCG | -2.9 ± 0.14 | -0.755 ± 0.18
CGCCAGCAAUAUUACGGCGG | -2.23 ± 0.13 | -1.83 ± 0.17
CGCCAGCAAUAUUACGGCGU | -3.63 ± 0.46 | -2.17 ± 0.23
CGCCAGCAAUAUUACGGGAG | -1.92 ± 0.072 | -1.38 ± 0.094
CGCCAGCAAUAUUACGUCCU | -4.8 ± 0.36 | -2.45 ± 0.31

Sequence | self-splicing fitness (ln) (30 °C) | self-splicing fitness (ln) (37 °C)
CGCCAGCAAUAUUACGUCGG | -3.04 ± 0.21 | -1.91 ± 0.21
CGCCAGCAAUAUUACGUCUG | -2.97 ± 0.18 | -0.917 ± 0.13
CGCCAGCAAUAUUACGUGAG | -1.37 ± 0.078 | -1.25 ± 0.11
CGCCAGCAAUAUUACGUGCA | -0.897 ± 0.056 | 0.212 ± 0.085
CGCGAGCAAUAUUACGAAAA | -1.55 ± 0.43 | -3.06 ± 0.4
CGCGAGCAAUAUUACGAACC |  | -0.306 ± 0.33
CGCGAGCAAUAUUACGAAUA | -2.84 ± 0.35 | -2.25 ± 0.38
CGCGAGCAAUAUUACGACCC | -0.487 ± 0.44 | 
CGCGAGCAAUAUUACGCGAC | -2.96 ± 0.34 | -0.404 ± 0.39
CGCGAGCAAUAUUACGCGCG |  | -2.07 ± 0.29
CGCGAGCAAUAUUACGCGGC |  | -2.4 ± 0.38
CGCGAGCAAUAUUACGCGUA | -2.59 ± 0.37 | -2.52 ± 0.28
CGCGAGCAAUAUUACGCUAA | -2.95 ± 0.27 | -2.55 ± 0.28
CGCGAGCAAUAUUACGCUUG | -3.06 ± 0.2 | -1.46 ± 0.22
CGCGAGCAAUAUUACGGGAG | -3.66 ± 0.19 | -2.91 ± 0.22
CGCGAGCAAUAUUACGGGGA | -1.94 ± 0.28 | -2.41 ± 0.29
CGCGAGCAAUAUUACGGGGU | -4.28 ± 0.23 | -2.95 ± 0.22
CGCGAGCAAUAUUACGGGUC | -3.27 ± 0.2 | -2.38 ± 0.31
CGCGAGCAAUAUUACGGUCC | -3.29 ± 0.4 | -2.12 ± 0.44
CGCGAGCAAUAUUACGGUUG | -1.73 ± 0.068 | -1.76 ± 0.12
CGCGAGCAAUAUUACGUAAC | -2.76 ± 0.41 | -1.76 ± 0.27
